Assay [1] can be described thus: In vitro DTNB thiolase activity assay on clarified cell lysates, butyryl-CoA substrate. It counts as biochemical. Particulars: lysate of BL21 E. coli expressing the thiolase; 0.5 mM butyryl-CoA, 0.2 mM acetyl-coA, 0.5 mM DTNB, pH 7.4, 412 nm; no-substrate background subtracted; triplicate. The method, then: (§1) Plasmids containing the optimized thiolase genes were transformed into BL21 E. coli cells. Empty plasmid pTrcHisA was also transformed as a negative control. For expression and characterization experiments, shake flasks containing 40 mL TB were innoculated at 5% from overnight cultures. Flasks were incubated at 30° C. at 250 rpm shaking for 2 hours, then protein production was induced with 0.2 mM IPTG and incubated for 4 more hours at 30° C. while shaking. Cells were harvested by centrifugation and pellets were stored at −80° C.
(§2) Activity of thiolase candidates were assessed with an in vitro assay using DTNB (5,5′-Dithiobis(2-nitrobenzoic acid)) as an indicator. The enzyme activity was tested using two different substrates: crotonoyl-CoA and butyryl-CoA. The DTNB interacts with the free thiol created by the condensation of acetyl-CoA and the substrate present (butyryl-CoA or crotonoyl-CoA). Unless otherwise specified, all chemicals were purchased from Sigma-Aldrich Chemical Company, ST. Louis, Mo.
(§3) Cells were lysed using mechanical disruption using a BeadBeater (BioSpec products, Bartlesville, Okla.) using the manufacturer's instructions. The cell lysate was partially clarified by centrifugation (14,000 G for 5 minutes). Protein concentrations of the resulting clarified lysates were measured via BioRad Total Protein assay using the manufacturer's instructions. Lysates were normalized by protein concentration by dilution in 10 mM Tris buffer. The normalized lysates were diluted 1 to 5 in 10 mM Tris buffer. 20 ul of lysate was added to each well for the 96-well plate assay. Each condition was performed in triplicate.
(§4) The reaction mixture contains 10 mM Tris pH 7.4, 5 mM MgSO4, 0.2 mM acetyl-coA, 0.5 mM DTNB, 0.5 mM substrate (either butyryl-CoA or crotonoyl-CoA). […] The reactions in these microplates were monitored at 412 nm. Readings were taken every 9 seconds for 5 minutes and the data was used to calculate activities of each enzyme. The reactions using crotonoyl-CoA as substrate required a 60 sec incubation period before rates were able to be measured.

Assay [2] is described as follows: In vitro DTNB thiolase activity assay on clarified cell lysates, crotonoyl-CoA substrate. It counts as biochemical. Particulars: lysate of BL21 E. coli expressing the thiolase; 0.5 mM crotonoyl-CoA, 0.2 mM acetyl-coA, 0.5 mM DTNB, pH 7.4, 412 nm; 60 sec incubation before measurement; no-substrate background subtracted; triplicate. How it is done: as §1, §2, §3, §4

Data on 3 molecules can be found in US9809833B2, “Pathways to adipate semialdehyde and other organic products” (BioAmber Inc., priority 2012, dated 2017).

Turning to “thl: acetyl-CoA acetyltransferase, E. coli optimized thl sequence originally from Clostridium acetobutylicum ATCC 824, SEQ ID NOS 5 and 6”, the “Average Activity with background subtracted, Butyryl coenzyme A” value (from here on “Average Activity … Butyryl coenzyme A”) in assay [1] was determined as 0.039 µmol/min/mg. The “Average Activity with background subtracted, Crotonoyl coenzyme A” value (from here on “Average Activity … Crotonoyl coenzyme A”) in assay [2] amounted to 0.0021 µmol/min/mg.

B1: bktB: Beta-ketothiolase, E. coli optimized bktB sequence originally from Cupriavidus necator ATCC 17699, SEQ ID NOS 1 and 2 (protein)
chain: MTREVVVVSGVRTAIGTFGGSLKDVAPAELGALVVREALARAQVSGDDVGHVVFGNVIQTEPRDMYLGRVAAVNGGVTINAPALTVNRLCGSGLQAIVSAAQTILLGDTDVAIGGGAESMSRAPYLAPAARWGARMGDAGLVDMMLGALHDPFHRIHMGVTAENVAKEYDISRAQQDEAALESHRRASAAIKAGYFKDQIVPVVSKGRKGDVTFDTDEHVRHDATIDDMTKLRPVFVKENGTVTAGNASGLNDAAAAVVMMERAEAERRGLKPLARLVSYGHAGVDPKAMGIGPVPATKIALERAGLQVSDLDVIEANEAFAAQACAVTKALGLDPAKVNPNGSGISLGHPIGATGALITVKALHELNRVQGRYALVTMCIGGGQGIAAIFERI
modifications: Cupriavidus necator
B1: the “Average Activity … Butyryl coenzyme A” value in assay [1] was found to be 0.069 µmol/min/mg. For the same molecule, the “Average Activity … Crotonoyl coenzyme A” value in assay [2] stood at 0.0043 µmol/min/mg.

B2: phaA: acyltransferase, E. coli optimized PhaA sequence originally from Ralstonia sp., EC 2.3.1.9, SEQ ID NOS 3 and 4 (protein)
chain: MTDVVIVSAARTAVGKFGGSLAKIPAPELGAVVIKAALERAGVKPEQVSEVIMGQVLTAGSGQNPARQAAIKAGLPAMVPAMTINKVCGSGLKAVMLAANAIMAGDAEIVVAGGQENMSAAPHVLPGSRDGFRMGDAKLVDTMIVDGLWDVYNQYHMGITAENVAKEYGITREAQDEFAVGSQNKAEAAQKAGKFDEEIVPVLIPQRKGDPVAFKTDEFVRQGATLDSMSGLKPAFDKAGTVTAANASGLNDGAAAVVVMSAAKAKELGLTPLATIKSYANAGVDPKVMGMGPVPASKRALSRAEWTPQDLDLMEINEAFAAQALAVHQQMGWDTSKVNVNGGAIAIGHPIGASGCRILVTLLHEMKRRDAKKGLASLCIGGGMGVALAVERK
modifications: Ralstonia sp., strain EMBL EON20543.1
For the molecule B2, the “Average Activity … Butyryl coenzyme A” value in assay [1] is 0.053 µmol/min/mg. The “Average Activity … Crotonoyl coenzyme A” value in assay [2] amounted to 0.0001 µmol/min/mg.
